Molecular target: urokinase-type plasminogen activator receptor (human) (UniProt Q03405)
Test: cell-based or functional assay

Chain of urokinase-type plasminogen activator receptor (human) (Q03405 23-305): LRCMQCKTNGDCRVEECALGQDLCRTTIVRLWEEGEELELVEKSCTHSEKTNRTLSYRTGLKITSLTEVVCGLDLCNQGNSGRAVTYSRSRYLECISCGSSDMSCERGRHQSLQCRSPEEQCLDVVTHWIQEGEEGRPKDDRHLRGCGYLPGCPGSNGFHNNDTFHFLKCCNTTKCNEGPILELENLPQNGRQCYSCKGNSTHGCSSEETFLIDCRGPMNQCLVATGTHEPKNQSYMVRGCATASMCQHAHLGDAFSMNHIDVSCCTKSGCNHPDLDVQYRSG

Substance: DTAT (from UniProt P00588 33-422; P00749 21-155)
- IC50, 3H-thymidine incorporation inhibition, HUV-EC, DTAT: 0.0268 nM
